Assay results taken from patent US12636342B2, “TARS derived from Akkermansia muciniphila or fragment thereof, and use thereof” (KOREA RESEARCH INSTITUTE OF BIOSCIENCE AND BIOTECHNOLOGY, priority 2020, dated 2026).

Assays:
[1] = system: human macrophages (THP1); assay: ELISA of immune cytokine secretion in LPS-treated THP1 (inflammatory environment); format: cell-based; conditions: THP1, LPS-induced inflammation, 0.1, 0.2, 0.5 μM, 24 h
Procedure: To determine whether AmTARS affects immune cytokine secretion when cellular inflammation was induced, mouse bone marrow-derived macrophages BMDMs as mouse-derived immune cells and human macrophages THP1 as human-derived immune cells were cultured by way of the same method as in Example 2.
Specifically, the cultured BMDMs and THP1 were treated with lipopolysaccharide (LPS) to induce an inflammatory response and were simultaneously treated with AmTARS at 0.1 μM, 0.2 μM, and 0.5 μM for 24 h to obtain cell cultures. The obtained cell cultures were analyzed for immune cytokine secretion by way of the same method as in Example 2.

[2] = system: macrophage-depleted colitis mice; assay: DSS-induced colitis in macrophage-depleted (Clodrosome) mice; format: in vivo, mouse
Procedure: To further validate the macrophage-dependent function of AmTARS in improving colitis, we investigated the anti-inflammatory effects of AmTARS in macrophage-depleted colitis mice.
A macrophage-deficient mice were prepared by administration of Clodrosome (administered at a concentration of 200 μL/animal to the abdominal cavity of mice a total of three times on Days 1, 5, and 8), and then the anti-inflammatory efficacy experiment was conducted by way of the same method as in Example 5. Normal mice injected with Encapsome were used as a control.

[3] = system: Raw 264.7 cells; assay: ELISA of immune cytokine secretion in LPS-treated Raw 264.7 cells; format: cell-based, mouse; conditions: Raw 264.7, LPS, 24 h
Procedure: Next, to determine whether the regulation of immune cytokine secretion by AmTARS in an inflammatory environment was induced by the two functional sites, the mouse-derived immune cell Raw 264.7 cells were treated with LPS to induce an immune response by the method as in Example 3, and treated with AmTARS, ΔU1AmTARS, and ΔU2AmTARS for 24 h separately to obtain cell cultures. The obtained cell cultures were analyzed for Immune cytokine secretion by way of the same method as in Example 2.

[4] = molecular target: T1, TLR4 (Homo sapiens, UniProt O00206); assay: Pull-down assay with TLR4 in HEK 293T cells; format: binding; conditions: Strep-AmTARS and TLR4-FLAG
T1 construct: FLAG (C); expressed in transfected cells; host or cells: HEK 293T
T1 sequence (O00206 24-839): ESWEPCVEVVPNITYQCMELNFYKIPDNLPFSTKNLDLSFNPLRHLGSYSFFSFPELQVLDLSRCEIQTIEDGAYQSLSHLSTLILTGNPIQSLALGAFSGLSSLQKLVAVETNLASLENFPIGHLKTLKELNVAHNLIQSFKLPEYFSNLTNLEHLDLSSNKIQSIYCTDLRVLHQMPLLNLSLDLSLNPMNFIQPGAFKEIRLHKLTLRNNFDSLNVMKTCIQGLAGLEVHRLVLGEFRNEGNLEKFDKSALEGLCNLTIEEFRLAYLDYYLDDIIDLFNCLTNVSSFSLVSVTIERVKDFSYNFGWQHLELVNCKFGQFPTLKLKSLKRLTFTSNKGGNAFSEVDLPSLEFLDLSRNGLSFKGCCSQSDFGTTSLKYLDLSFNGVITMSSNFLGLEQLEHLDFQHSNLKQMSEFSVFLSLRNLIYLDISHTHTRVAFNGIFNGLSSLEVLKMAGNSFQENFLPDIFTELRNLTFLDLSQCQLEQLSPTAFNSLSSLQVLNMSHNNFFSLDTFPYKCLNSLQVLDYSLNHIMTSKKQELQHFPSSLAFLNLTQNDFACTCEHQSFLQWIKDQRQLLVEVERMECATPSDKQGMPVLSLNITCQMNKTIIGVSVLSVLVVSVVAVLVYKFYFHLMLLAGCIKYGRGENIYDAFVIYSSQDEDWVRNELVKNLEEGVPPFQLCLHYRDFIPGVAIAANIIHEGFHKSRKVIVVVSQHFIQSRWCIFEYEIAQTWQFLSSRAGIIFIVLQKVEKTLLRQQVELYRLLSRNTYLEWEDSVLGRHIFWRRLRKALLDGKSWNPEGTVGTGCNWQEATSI
Text: (A) AmTARS-interacting candidates identified from membrane protein interactome analysis. Potential interactors (receptors) involved in innate immunity are indicated in red. (B-D) Pull-down of Strep-AmTARS co-expressed with NLRX1-FLAG (B), CD163-FLAG (C), and TLR4-FLAG (D) in HEK 293T cells. Data shown are representative of three independent experiments, each with similar results.
Then, Strep-tagged AmTARS, AmTARS having deletions of two functional site (AmTARSΔ1Δ2), and FLAG-tagged TLR2 were transduced into human-derived HEK 293T cells through PEI, and thereafter, the cells were lysed using a lysis buffer containing 50 mM Tris-HCl (pH 7.5), 100 mM NaCl, 1% NP-40, 1 mM EDTA, 0.25% Na-deoxycholate, and a protease inhibitor cocktail. The cell lysates each were incubated with Strep Tactin beads and washed with a buffer containing 137 mM NaCl, 2.7 mM KCl, 10 mM Na2HPO4, 1.8 mM KH2PO4, and 1 mM EDTA, and proteins attached to the beads were eluted and analyzed by immunoblotting.

[5] = system: TLR2-KO mice with DSS-induced colitis; assay: DSS-induced colitis in TLR2-deficient mice; format: in vivo, mouse
Procedure: We assessed the role of TLR2 in AmTARS function in vivo. To verify whether the binding between AmTARS and TLR2 actually acted on the anti-inflammatory effect of AmTARS, an inflammatory bowel disease mouse model was prepared from TLR2-deficient mice by way of the same method as in Example 5 and investigated for anti-inflammatory efficacy after the administration of AmTARS. TLR2-KO mice were slightly more susceptible to DSS-induced colitis than WT mice, as reported previously (Rakoff-Nahoum et al., 2004).

[6] = system: BMDMs; assay: Global gene expression profiling (RNA sequencing) of BMDMs; format: cell-based, mouse; conditions: GSEA (Enrichr)
Procedure: (A-E) Global gene expression analysis. Total mRNA from BMDMs treated with either AmTARS (0.5 μM) or Pam3 (10 ng ml-1) for 1 or 3 h was isolated and analyzed by RNA sequencing (A). Principle components analysis (PCA) of the gene expression profiles for each sample (B). Hierarchical clustering of gene expression profiles from each sample identified cluster 3 and 4 (C). Gene set enrichment analysis (GSEA) of clusters 3 and 4 with respect to terms related to inflammation (D). […] (F) Overview of the experimental procedures for zebrafish. The yolk of Tg (NFκB:EGFP) transgenic zebrafish larvae (3 dpf) was injected with PBS or AmTARS. Injected larvae were treated at 3 and 5 dpf with 0.5% DSS for 24 h, with a washing period with fresh water for 24 h in between. Sample collection and analysis of Tg (NFκB:EGFP)-based EGFP intensity were conducted at 6 dpf. (G) Representative confocal images showing NF-κB signaling in the mid-distal intestines of PBS- or AmTARS-injected larvae with or without DSS treatment. White dashed lines denote the boundaries of the intestines (based on merged DIC bright field images). (H) Bar graph comparing the fluorescence intensity of the mid-distal intestines of PBS- or AmTARS-injected larvae treated (or not) with DSS (n=32 per PBS group and n=35 per DSS group). (I) Schematic model of the role of AmTARS in maintaining immune homeostasis via TLR2-mediated anti-inflammatory signaling pathways. Data shown in (A-C) are representative and repeated twice. Data shown in (H) are representative of three independent experiments, each similar results (mean±SEM). P-values were calculated by unpaired and two-tailed Student's t-test.
We next performed global gene expression profiling of BMDMs treated with AmTARS or Pam3 for 1 or 3 h (FIG. 32A). […] Subsets of genes showing different expression patterns between AmTARS and Pam3 were classified into six clusters by hierarchical clustering analysis (FIGS. 33A and 33B). The gene expression pattern at 3 h was particularly different for clusters 3 and 4 (FIGS. 32C, 33A, and 33B). […]

B1: Akkermansia muciniphila-derived threonyl-tRNA synthetase (TARS) (protein)
chain: MSEHKERKTLEERQQMSDLERLRHSCAHVLATAICRLWPDAQLAGGPAVDNGFYYDVELDHRISTEDFERIEEEMKKVVKENQVFQKEVISRADAMKMAESGELGALGPRSEPSRFKIDLLNDIPEDEEISLYRNGDFTDLCAGPHVGRTGNCKAFKIMSVASAFYKGDKNRPMLQRIYGTCFPNRTQLDEHLERLEEARRRDHRKLGRELGLFCIDESVGQGLILWKPKGALIRRSLQDFITEELDKLGYSQVYTPNIGKLDLYRTSGHFPYYQESQYAPIPERDAMEKLSQEGASCAELFNGLATGTIEGYMLKPMNCPHHIKIYANDAHSYRDLPVRLAEFGTVYRWEQSGELGGMTRVRGFTQDDAHIFCTPDQLAGEIRQCLGIVKTIFGTLGMTDYRVRLSMRDPESDKYVGSPENWDKAEQALREAAEWLGADYSEEAGEAAFYGPKIDFIVRDAIGREWQLGTVQVDYNLPERFDLHYTGADNKPHRPVMVHRAPFGSMERFTGLLIEHFEGKFPTWLSPEQVRVLPISDKVTDVAAAHRTALAARGVRVTVDETPDKIGAKIRNARLDRVPYMLVLGQREAEDGTVSVRHRDKGDLGAMPFEQFADLVAREIAERHISPVI
modifications: Akkermansia muciniphila TARS
Question: Which results are given for B1?
Answer: secretion of IL-6 [1]: reduced in a dose-dependent manner; secretion of IL-10 [1]: increased in a dose-dependent manner; secretion of TNF-α [1]: reduced in a dose-dependent manner; colitis-induced body weight loss [2]: no effect; damage score [2]: no effect; disease activity score [2]: no effect; disruption of the epithelial lining [2]: no effect; numbers of IL-10-positive macrophages [2]: did not affect; numbers of inflammatory monocytes [2]: did not affect; shortening of the intestine [2]: no effect; secretion of IL-6 [3]: reduced in a protein concentration-dependent manner; secretion of IL-10 [3]: increasingly secreted in an AmTARS concentration-dependent manner; secretion of TNF-α [3]: reduced in a protein concentration-dependent manner; interaction with TLR4 (pull-down) [4]: no interaction; colitis-induced body weight loss ([5]; TLR2-KO mice): did not improve; disease activity score ([5]; TLR2-KO mice): did not improve; B cells in the colon ([5]; TLR2-deficient mice): did not show efficacy of increasing B cells in the colon; amount of IgA ([5]; TLR2-deficient mice): a significant change in the amount of IgA could not be observed; increase in IL-10-secreting macrophage numbers ([5]; colitis TLR2-KO mice): did not induce; reduction in pro-inflammatory monocyte numbers ([5]; colitis TLR2-KO mice): did not induce; transcription factors associated with up-regulated genes [6]: up-regulation of the anti-inflammation-related transcription factor CREB
